Measurements taken from article PMC10598736, “Structural insights into Rad18 targeting by the SLF1 BRCT domains” (The Journal of Biological Chemistry, 2023).

Legend:
[1] = target: T1, full-length Rad18 S442E, strep-his-sumo-tagged (human, UniProt Q9NS91 1-495, S442E); experiment: pull-down; his-strep-sumo-tagged Rad18 (50 μg) held on streptactin beads, incubated with 50 μg SLF1^tBRCT at 4 °C for 60 min; 20 mM Tris (pH 7.5), 200 mM sodium chloride, 2 mM DTT; eluted with D-desthiobiotin, SDS PAGE; details: both partners purified
T1 construct: Rad18, human, with the phosphomimetic S442E; also called S442E-substituted Rad18; source: E. coli BL21 Rosetta (DE3), purified (same protocol as the wild type); not shown: Strep, N-terminal, kept; His, N-terminal, kept; SUMO, N-terminal, kept

[2] = target: T2, full-length Rad18 S442E/S444E (2SE), strep-his-sumo-tagged (human, UniProt Q9NS91 1-495, S442E | S444E); experiment: as above; details: both partners purified
T2 construct: Rad18, human, with the phosphomimetics S442E/S444E; also called S442E/S444E (2SE)-substituted Rad18; source: E. coli BL21 Rosetta (DE3), purified (same protocol as the wild type); not shown: Strep, N-terminal, kept; His, N-terminal, kept; SUMO, N-terminal, kept
T2 sequence (Q9NS91 whole entry S442E/S444E): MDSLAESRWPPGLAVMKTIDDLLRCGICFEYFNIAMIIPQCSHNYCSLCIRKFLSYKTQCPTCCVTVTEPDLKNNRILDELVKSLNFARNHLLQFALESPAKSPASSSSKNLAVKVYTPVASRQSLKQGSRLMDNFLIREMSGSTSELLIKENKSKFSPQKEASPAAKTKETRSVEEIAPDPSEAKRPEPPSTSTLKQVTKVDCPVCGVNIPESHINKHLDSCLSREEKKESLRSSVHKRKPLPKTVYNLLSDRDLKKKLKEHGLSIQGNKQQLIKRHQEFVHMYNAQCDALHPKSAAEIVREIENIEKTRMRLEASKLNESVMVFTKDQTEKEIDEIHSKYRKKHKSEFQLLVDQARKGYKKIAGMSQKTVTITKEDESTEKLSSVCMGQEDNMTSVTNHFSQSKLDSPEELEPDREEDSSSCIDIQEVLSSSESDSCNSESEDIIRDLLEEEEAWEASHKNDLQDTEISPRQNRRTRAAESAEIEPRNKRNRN

T1 sequence (Q9NS91 whole entry S442E): as the sequence (Q9NS91 whole entry S442E/S444E) above, with E444S counted along it

B1: SLF1 tandem BRCT repeat (SLF1^tBRCT), residues 1-199, wild type (domain or fragment, UniProt Q9BQI6 1-199, looked up)
chain: MEDGTPKHIIQMTGFKMEEKEALVKLLLKLDCTFIKSEKYKNCTHLIAERLCKSEKFLAACAAGKWILTKDYIIHSAKSGRWLDETTYEWGYKIEKDSRYSPQMQSAPKRWREELKRTGAPGAFHRWKVVLLVRTDKRSDSLIRVLEAGKANVILPKSSPSGITHVIASNARIKAEKEKDNFKAPFYPIQYLGDFLLEK
notes: SMC5/6 localization factor 1 (SLF1), tandem BRCT repeat at the N-terminus, residues 1-199; coding region optimized for E. coli and synthesized; also called WT; SMC5/6 localization factor 1 tBRCT; source: E. coli BL21 Rosetta (DE3), purified (Ni-NTA, heparin, gel filtration)
- binding result [1]: binds
- binding result [2]: binds
